The text below walks through data of a protein production outcome set (Wang et al. 2014).
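Also: failed if final PepcDB status was selected cloned or expressed and not failed if soluble or beyond.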

The series can be described thus: label from the status in PepcDB records.
As to “MAGYKPVAIQTYPVLGEKITQDTLYWNNYKTPVQIKEFGAVSKVDFSPQLPYNYAVTASSRIHIYGRYSQEPVKTFSRFKDTAYCATFRQDGQLLVAGSEDGVVQLFDINGRAPLRQFEGHTKAVHTVDFTADNYHVVSGADDYTVKLWDIPNSKEILTFKEHSDYVRCGCASKLNPDLFVTGSYDHTVKIFDARTNKNVLCVEHGQPVESVLLFPSGGLLVSAGGRYVKVWDMLKGGQLLVSLKNHHKTVTCLCLSSSGQRLLSGSLDRKVKVYSTTSYKVVHSFDYAASILSLALSHQDETIVVGMTNGILSVKHRKSEAKKTSLPRRRRPAYRTFIKGKNYLKQRDDIMVSRPAKKHLEGYDKDLKSFRVSQALDRVLEPKCVIRTPEVTVSIIKELTRRGVLANALAGRDEKEVTRVLNFLIRNLSQPRFAPVLINAAEIIIDIYLPVIGQSSVVDKKFIVLQELVEKEIDYQRELLETLGMMDMLFATMTRNDSDPVPEHVPAELPEEKTESPTQPSDTDKNS”, the protein production result was “failed”.

Regarding “MAHACVSTSASSLRFTAGFVSASPNGSSFDSPKLSLPFEPLRSRKTNKLVSDRKNWKNSTPKAVYSGNLWTPEIPSPQGVWSIRDDLQVPSSPYFPAYAQGQGPPPMVQERFQSIISQLFQYRIIRCGGAVDDDMANIIVAQLLYLDAVDPTKDIVMYVNSPGGSVTAGMAIFDTMRHIRPDVSTVCVGLAASMGAFLLSAGTKGKRYSLPNSRIMIHQPLGGAQGGQTDIDIQANEMLHHKANLNGYLAYHTGQSLEKINQDTDRDFFMSAKEAKEYGLIDGVIMNPLKALQPLAAA”, the protein production result was “failed”.

Take “MAHGVNIYNVYSISIIALLASSFLLYAQEAKGLENAMLFLSIIFPYAFYLNGHILLYLVLPAYLIVTSSVTFHYYIYELIPTLIYYFGILPKFINYNVRLMTILWES”: the protein production result is listed as “failed”.

Regarding “MAHHHHHHMGGPPTIEELKREKIIPHVFPDENVDLTVDMYISFKSGKEVNHGNILDLAGTGSVPRNIKFSEEPPEDYCYILFMIDPDFPSRRRPDGRDYVHWAVSGIKSKELVKGTDKNCITLLPYVGPSIKKGTGLHRISFILSLVKEENKGNVTGVPLYRGEHYITRVKFNNCQSAYNVIQMNDMKIVGFNWCQIEA”, the protein production entry was “not failed”.

As for “MAHPFLRTIFEVVITLYMLHNLYKVLGDDEMDLEEMSSFFNKRVNEYEEHMMNNVGGANQYYIETAKLIPRGKEINILDLGCGTGLELDEIFKINNTVRVTGIDLAENMLRKIKEKHKDKLDRLTLIVGDYFSCDIGEKVFDAALSVETLHHFNHEQKIKLYKKIVRSLKDNGVYIEADYMAPNQDYEDHCFNENKRIRLELGIKDGFYHYDTPCTVENQIKMLYKSGFKSVEKVFKAENTVILLAKK”, the protein production entry is on record as “failed”.

Consider “MAHYKAADSKREQFRRYLEKSGVLDTLTKVLVALYEEPEKPNSALDFLKHHLGAATPENPEIELLRLELAEMKEKYEAIVEENKKLKAKLAQYEPPQEEKRAE”, for which the protein production entry is “not failed”.

On to “MAIDAFALILAMLGLGLLFARLRVLPDNSADVLNRIVLYICLPASVLTYVPRLHLDASLGGVIATPWLLTAIIVPLLWGCSRLLRFGRAEYAALLMCVVFTNSSFIGFPMVRALIGDHALPYAVVYDQFGTFVLLSTFGLYVLARYSGDTPPTARLIVMRVLQFPPLWALLFALTLMPGQPPAWIGSGLKNLADAMLPLVMLSVGFSLQLRLPADELKPLAVGLVFKLLLMPVLALPLSWVLGLRGQMLQTNVLESAMPTMITAAALAISHRLAPRLAAAMVGYSILLSLLTLPAWAWLLARLVA”, for which the protein production entry is “failed”.

On to “MAIERIQLHTHGDDRGLLISLEQQRNVPFEIRRVYYLFGTRHDVHRGQHAHRQLNQFAVALHGSVTILLDEGNGNGPSEVVLDDPSQGLLLGRMVWRDLYRFSADCVLMVLADQPYDPGDYILDYDQFVSEVRNGTALQARRLEA”, for which the protein production entry was “failed”.

For the sequence “MAIIPGVEQKPMSSNLESRIDQGTGREPADMVLKGGRFFDLVTGELVASDIAICGDTVVGTCGDYKGRHEIDISGKIVVPGFIDTHLHIESSLVTPHEFDRCVLPYGVTTAICDPHEIANVLGAEGLQFFLDSAMETIMDIRVQLSSCVPATHLETSGADLPIEKLLPFRNHPKVIGLAEFMNFPGVIHKDPVCMAKLEAFQGQHIDGHAPLLSGAALNGYLAAGIRTEHECTSAAEALEKIRKGMHILVREGSVSKDLHALMPIITERLSPYLALCTDDRNPLDIAEQGHLDYMIRTAIASGVEPLAIYRAASISAAKAFGLRDRGLVAPGWRADLVVIDTLQNCKASMVLSGGRLVDDALFATRKPVAPVGLDSVKARPVLASHFGVPVTEGETPVMGVLPGKIITEHRRYKLPTDGNQTTVDLENDIIKVAVIERHGKNGNHANGFVQGFGLKKGAIASTVGHDSHNICVVGVSEDDMALAANRLGDIKGGFVVVEDGRVTGEIALPVAGLMSLEPYETVRDTLHTLRKAAYALGTTLEEPFLQVAFLPLPVIPHLKISDMGMVDVDRFALI”, the protein production result is “failed”.

As for “MAIKLSSIDQFEQVIEENKYVFVLKHSETCPISANAYDQFNKFLYERDMDGYYLIVQQERDLSDYIAKKTNVKHESPQAFYFVNGEMVWNRDHGDINVSSLAQAEE”, the protein production entry is given as “not failed”.

Take “MAILEYIMLLFIGLIAGTVGSLVGLGGGIIIVPLLIGLHSLSPQLAVGTSMVTVVFTGLSSTLTYMKHKRVDYKSGLILFIGSGPGGIIGSWANKFLNQDTFSLYFGIFLIFVSILLMLRDKLKPLSLSNTSVIKRSFTDNDGNTVHYQFPPFLAIFIAFIVGFISGLFGIGGGALLVPAMMLLFAFPAHIAVATSMFIVFLSAIVSSATHISLGNVSWIYALILIPGAWIGGKIGAYINTKLSGNAVINLLRITLIILGTRLIIISLL”: the protein production result is “failed”.

In the case of “MAILFAVVARGTTILAKHAWCGGNFLEVTEQILAKIPSENNKLTYSHGNYLFHYICQDRIVYLCITDDDFERSRAFNFLNEIKKRFQTTYGSRAQTAPPYAMNSEFSSVLAAQLKHHS”, the protein production entry is given as “not failed”.

With “MAIMASRKHLKRFKSPVHWPIHPKEYKWTVKPSPGPHAIENSLPLMIIVRDILKVADNAREARKIINSGEVLVDGRPRKNYKFPVGFMDVVSIPRTGDVYRVLPDERGRLVLHPIDEENAGFKLCKIVNKTTIKGGRTQLNLHDGRNYLSDDEFRVGDVVKLSIPEQEILERIPFEKDSLGLVTGGRHTGEIGKIKKINITRSSMPNTAVIETGAGKTFLTLKDYVFVIGKDESVISLPGGKLEHHHHHH”, the protein production entry is “failed”.

For “MAINLTPLIGFLPEFIISAIISGFLFQAITNDKTFVRPIIGGKKPEQKSILKKVSSRRKPVDMKEYERMKNKTRYQALLFNSNMHIISSSALTVSAWILLIYAMIGIGKSSIFMPTFGFKINFIVYALLVIIFSVAMISSFSQVVRLREIYRIIASVFAVLSVVIFFEIPAMKWLFYIFPKVIVSYIFIYFAGLFILFLCYSLWWKLAPKITFYVSFYSSILTYFAIVSLMIYNSIPKL”, the protein production result is reported as “failed”.

With “MAINRSSDHESDENTRLYHPYQNYQVPIKSQYLYKLPTSPEFLFTEESLKQRRSWGENLTFYTGTGYLAGSVAGASAGIFSGIKSFENGDTTKLKINRILNSSGQAGRTWGNRVGIVGLIYAGIESGVVAVTDKDDVWTSVVAGLGTGAVFRAARGVRSAAVAGAFGGIAAGAVVAGKQVFKRDPERGSITLDP”, the protein production entry is recorded as “failed”.

“MAIQGSRTEGLGGYTFDDLAVVMGTYNEEEAIGTVLDDIATVTDGRAEVICVDGSSDRTPEIARDHGATVIEQEPQGYGVAVREAVLTPDRPVVVTTDCDDTYPMERLPDFLAEINDGADVVSGDRLYYGAEQMPAMNKLGNELFALLASVLMGKRVHDTTTGMRAYRREVLQKIVWTENTGLSAELLMRPLMRGYDVRERPIEYDERKGETKLDPFSGGAAIAKSIVRVALEERFRLEHHHHHH”: the protein production result was “not failed”.

In the case of “MAITVSIELNRDLEIPASYDEVFDLLADVPKSASHFPKVDKLVDLGNNAYRWEMEKVGVDKHAIQSVYACTYHADKEAGKITWSPIKGEGNGVVSGSWTLSAKGDNATAVKFQTSAELTVPLPSLLKLAISPVIKHEFNSLVDTYMANLKKAFLEHHHHHH”, the protein production entry is “not failed”.

With “MAIYTVKALITDPIDEILIKTLREKGIQVDYMPEISKEELLNIIGNYDIIVVRSRTKVTKDVIEKGKKLKIIARAGIGLDNIDTEEAEKRNIKVVYAPGASTDSAVELTIGLMIAAARKMYTSMALAKSGIFKKIEGLELAGKTIGIVGFGRIGTKVGIIANAMGMKVLAYDILDIREKAEKINAKAVSLEELLKNSDVISLHVTVSKDAKPIIDYPQFELMKDNVIIVNTSRAVAVNGKALLDYIKKGKVYAYATDVFWNEPPKEEWELELLKHERVIVTTHIGAQTKEAQKRVAEMTTQNLLNAMKELGMI”, the protein production result is listed as “not failed”.

Turning to “MAKAAKRFRTPSTTRVLYVRHAHAHGRQTWGGDDNKRPLDKKGRRQAEMLVPMLLPFKPTAIYSAVPDRCQATALPLADELGLDVSVNRLFGDDAWETDPEACKKRFTDVVAQGGVPMIVGQGDIIPEMIKWFSENGTLPIDEKIKAKKGSVWVLSFHDGVFTGADYLEHHHHHH”, the protein production result is “failed”.

Consider “MAKALEQPFDVANIPGPKMATLLEKGKPVANMIKKAKRPLLIVGPDMTDEMFERVKKFVEKDITVVATGSAITRFIDAGLGEKVNYAVLHELTQFLLDPDWKGFDGQGNYDLVLMLGSIYYHGSQMLAAIKNFAPHIRALAIDRYYHPNADMSFGNLWKKEEDYLKLLDEILAEL”, for which the protein production result was “not failed”.

“MAKAMELWVGEMKKMSEKINTRNPLMQRKNSTSVVSKQQQGSEEERGLINQKIREKNEAVTMSELTVCLLMDRFVPW”: the protein production entry was “failed”.

Turning to “MAKENEHFLKPDNQSPEESEQLDTVSMEPSQEIWNSTEQETSELQSDTFLSPATVRNSQTTDGYGQAEIVPATPSFMSAAGDSEEVGTPGRSLSEVFSASSLGQRSTRAADRESLQRHELGTNSFSLFSPEKEISFRNRKELEAPSGAAEEIERRVIWGTNVNVDECEQKIKKFLYEFTATTVQQDYEDGDGLQQAKPKPYYLELLTHANEMQYEVINIDLQHVFEFDSELYAYVVTYPTELIAIFDQTLQEVCKEMFATDDSSDIMSSGTSNFHAGRLITRMYNMKDTEIHSMREIDPSHIHQMIGVRGMVVRCSSVIPNMNRAFYSCNNCHWSLFVDIQRGKIEEPIQCDKCQARNSFMLIHNRSVFSDKQMIRIQETPETVPQGETPATMTIVAYDSLVDSARPGDQIEVTGILRAVSVRINPKQRSIRSVFRTYIDAIHILKGKQGRLSNSTEHMDTTSDYYPIGSDTSENALYYFERERSIREISQDPLLYDKLSRSIAPSIYGHEDLKKGILLQLFGGTRKDFSASGGGHFRSDIHVLLVGDPGTSKSLFLQYVHRIAPRGLYTSGRGSSAVGLTAYVTRDPDSNDMVLESGALVLSDKGICCIDEFDKMTDSTRSILHEAMEQQTVSIAKAGIICSLNARTSVLAAANPVESRYNPKLSVVDNIQLPPTLLSRFDLIYLILDNANPEEDKRLGNHITSLFSADTAVVHSDEDPLPSLEPATIHMPNSSHSFLDSTTLASYISYAREKVHPKLNDDAVQRLTKGYVEMRRMGNASKSWSGGIKTITATPRQLESLIRLSEAHAKMRLSDVVESQDVDEALRLVQVAMQQSAIDPITGTIDMDLITTGKSATKRSRIAKLGEAIFQYLQQTKTSDTAVRTSDVLMEVKRSSSMPFTEQDFDDAIHYLVEEERIFRVAGGLRVGTSW”, the protein production result is on record as “failed”.
